According to patent US20030162220A1 (HARUO SUGIYAMA, published 2003):

B1: WTIP 1-178, polypeptide containing the WW domain at the N-terminal end of WTIP with a histidine tag at the C-terminal (other)
chain: MRPGTGAERGGLMVSEMESHPPSQGPGDGERRLSGSSLCSGSWVSADGFLRRRPSMGHPGMHYAPMGMHPMGQRANMPPVPHGMMPQMMPPMGGPPMGQMPGMMSSVMPGMMMSHMSQASMQPALPPGVNSMDVAAGTASGAKSMWTEHKSPDGRTYYYNTETKQSTWEKPDDLKTPA
notes: Expressed in E. coli; whole-cell lysate run on SDS-PAGE and blotted; not shown: C-terminal his tag and XhoI junction residues from pET-21b(+)
B2: WTIP 1-98, polypeptide containing no WW domains with a histidine tag at the C-terminal (other)
chain: MRPGTGAERGGLMVSEMESHPPSQGPGDGERRLSGSSLCSGSWVSADGFLRRRPSMGHPGMHYAPMGMHPMGQRANMPPVPHGMMPQMMPPMGGPPMG
notes: Expressed in E. coli; whole-cell lysate run on SDS-PAGE and blotted; also called HYPA/FBP11 amino acids 1-98; mutant containing no WW domain; not shown: C-terminal his tag and XhoI junction residues from pET-21b(+)

Biological target: T1, GST (glutathione S-transferase) alone (UniProt P08515 1-218 = GST)
T1 construct: Control probe in the west western blots
T1 sequence (P08515 whole entry): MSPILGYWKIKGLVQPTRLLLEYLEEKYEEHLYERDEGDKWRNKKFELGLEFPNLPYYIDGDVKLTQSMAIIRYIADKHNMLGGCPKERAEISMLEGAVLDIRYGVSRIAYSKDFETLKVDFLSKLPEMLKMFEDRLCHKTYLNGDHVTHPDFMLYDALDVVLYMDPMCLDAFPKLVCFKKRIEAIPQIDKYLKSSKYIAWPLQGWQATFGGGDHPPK
Test: west western blot of his-tagged WTIP fragments (E. coli lysate) probed with GST

Row | Binder | binding result
1 | B1 | no binding
2 | B2 | no binding
